Measured values from patent US20140199714A1, “METHOD FOR DETECTING CANCER CELLS METASTASIZING INTO SENTINEL LYMPH NODE” (SHINSHU UNIVERSITY, priority 2008, published 2014).

Experiments:
Type in all cases: cell-based
[1] = system: ICAM-1 on human LECs; assay: Immunohistochemical expression of ICAM-1 on cultured human LECs; details: 48 hrs. simultaneous treatment with 10^−7 or 10^−6M antagonist; n=5
Procedure: (§1) Using an indirect immunohistochemical technique, the inventors examined the effects of the supernatants of culture medium of two kinds of carcinoma cells, MDA-MB-231 and MCF-7, on the expression of adhesion molecules such as E-selectin, P-selectin, vascular cell adhesion molecule (VCAM)-1, and intercellular adhesion molecule (ICAM)-1 on the human LECs. The carcinoma cells were plated in DMEM/F12 with 10% FBS, which was replaced the following day with DMEM/F12 with 3% FBS, and then collected after overnight culture. The collected solution was centrifuged at 2,000 rpm for 5 min. at 4° C. To examine the effects of the supernatants on the expression of the adhesion molecules on the human LECs, 1 mL of each collected solution was added to starvation culture medium, EBM-2 with 3% FBS of the human LECs, and then stimulated for 48 hrs. on the cells. In some experiments, the supernatant solutions at different concentrations (1/100 or 1/10,000 dilution) were constructed with appropriate volumes of DMEM/F12 with 3% FBS.
Indirect immunohistochemical studies were performed on the cultured LECs seeded or glass slides coated with type I collagen, and then the cells were fixed with 3.3% formalin in phosphate-buffered saline solution (PBS), for 20 min. at room temperature. […]
In some experiments, the effects of 10 ng/mL CCL2 on the immunohistochemical expression of ICAM-1 on the human LECs were also evaluated using the same procedure as that mentioned above after overnight neutralization of CCL2 in the starvation culture medium with a CCL2 specific antibody (1.0 μg/mL). […]
To quantitatively examine the immunohistochemical data concerning the expression of ICAM-1 on the human LECs, the high-resolution digital microphotographs were processed using the SCION IMAGE analysis program. […]

[2] = system: attachment of carcinoma cells to human LECs; assay: In vitro human LEC attachment assay (ATP or MDA-MB-231 supernatant stimulation); details: p<0.01, n=5
Procedure: The human LECs were plated to form a monolayer on type I collagen-coated 35 mm plates and incubated to confluence at 37° C. in 5% O2, 5% CO2, and 90% N2. The LECs were kept in serum-starved medium of EBM-2 with 3% FBS. Selected plates were treated with 10^−7M ATP or the supernatant of culture medium of MDA-MB-231 cells for 48 hrs. In some experiments, 10^−6M suramin was simultaneously added to the plates during 48 hrs. treatment with 10^−7M ATP or the culture medium supernatant of MDA-MB-231 cells.
In some experiments, the plates were also treated with anti-human-ICAM-1 antibody (available from R&D Systems, US) for 30 min after 48 hrs. treatment with the culture medium supernatant of MDA-MB-231 or 10^−7M ATP. Breast carcinoma cells stained with PKH26 fluorescent dye (available from SIGMA, US) were then plated at 5×10^4 cells per plate and incubated for 30 min. at 37° C. Unbound cells were removed by aspiration and the plates washed with DMEM/F12 three times. Attachment was quantitated by counting cells under ×100 magnification using a microscope (available from Leica, Switzerland).

[3] = system: ICAM-1 on human LECs; assay: Immunohistochemical expression of ICAM-1 on cultured human LECs; details: for staining with ICAM-1 on human LECs: 48 hrs. treatment with 100 ng/mL IL-6, 100 ng/mL VEGF-A, or 500 ng/mL VEGF-C; for expression of ICAM-1 on human LECs: 18 hrs.-stimulation with 10 ng/mL chemokine
[4] = system: F-actin in LECs derived from human collecting lymph vessel; assay: Staining of cytoskeletal protein F-actin in human LECs; details: 10 ng/mL TNF-α; 1 ng/mL and 10 ng/mL IL-1β; 2 hrs. at 37° C.; vs negative control
Procedure: LECs derived from human collecting lymph vessel, which were transplanted into a culture system, were plated on glass slide, and repeatedly subcultured to confluence. Stimulating factors of 10 ng/mL of tumor necrosis factor-α (TNF-α) of Catalog No. T-0157 (available from SIGMA, US), 1 ng/mL and 10 ng/mL of interleukin-1β (IL-1β) of Catalog No. 200-01B (available from PeproTech, US) were respectively dissolved in EBM-2 containing 3% FBS of Catalog No. CC-3156 (available from Sankyo Junyaku Co., Ltd., Japan) and added onto the cells, and then the cells were incubated for 2 hrs. at 37° C. They were fixed with 3.7% formalin. They were washed with PBS solution, and then still stood in PBS solution containing 0.1% TRITON X-100 of Catalog No. X-100 (available from SIGMA, US) for 5 min. Additionally they were washed with PBS solution, and then phalloidin-FITC antibody of Catalog No. P-5282 (available from SIGMA, US) diluted 500 times with PBS solution containing 0.1% BSA was added thereto. They were still stood for 2 hrs. at room temperature. After they were washed with PBS solution, and mounted in MOBI GLOW MOUNTING MEDIUM. Also negative control was similarly prepared except for using no stimulating factor. […] The LECs of the negative control without the stimulating factor indicate obscure green fluorescence, and there were few expression of F-actin.

[5] = system: E-selectin on human LECs; assay: Immunohistochemical expression of E-selectin on cultured human LECs
Procedure: as §1
(§2) Indirect immunohistochemical studies were performed on the cultured LECs seeded or glass slides coated with type I collagen, and then the cells were fixed with 3.3% formalin in phosphate-buffered saline solution (PBS), for 20 min. at room temperature. The cells were washed three times with PBS, and then incubated overnight at 4° C. with primary polyclonal human antisera to E-selectin/CD62E (dilution 10 μg/mL, available from R&D Systems, US), P-selectin/CD62P (dilution 10 μg/mL, available from R&D Systems, US), VCAM-1/CD106 (dilution 10 μg/mL, available from R&D Systems, US), and ICAM-1/CD54 (dilution 10 μg/mL, available from R&D Systems, US).
(§3) Before primary staining, the cultured cells were permeabilized with 0.1% TRITON-X. After washing three times in PBS, the cells were incubated for 1 hr. at room temperature with 1:100 diluted ALEXA FLUOR 488 donkey anti-mouse IgG (available from Invitrogen, US). The nuclei of cultured cells were counter-stained and mounted with PROLONG GOLD antifade reagent with 4′-6-diamidine-2-phenylindole (DAPI) (available from Molecular Probes, US), examined by a fluorescent microscope (Leica, Switzerland), and photographed.
(§4) Immunohistochemistry was performed on the cultured human LECs or the fresh-frozen SLNs isolated from the breast cancer patients. In brief, the cultured LECs were fixed with 10% formalin in the phosphate-buffered saline solution (PBS) at room temperature. The cells were incubated for 4 hrs. at room temperature with primary polyclonal human antisera platelet-endothelial cell adhesion molecule (PECAM)-1 (dilution 1:100, available from BD Biosciences, US), lymphatic vessel endothelial hyaluronan receptor (LYVE)-1 (dilution 1:50, available from RELIATech, Germany), PROX-1 (dilution 1:50, available from AngioBio, US), podoplanin (dilution 1:50, available from AngioBio, US), vascular endothelium growth factor receptor 3 (VEGF R3) (dilution 1:50, available from Santa Cruz, US), E-selectin/CD62E (dilution 1:50, available from R&D systems, US), P-selectin/CD62P (dilution 1:50, available from R&D systems, US), vascular cell adhesion molecule (VCAM)-1/CD106 (dilution 1:50, available from R&D systems, US), and intercellular adhesion molecule (ICAM)-1/CD54 (dilution 1:50, available from R&D systems, US). Before the staining, permeabilization of the cultured cells with 0.1% TRITON-X was performed. Then, the cells were stained using the following antibodies: ALEXA FLUOR 488 chicken anti-rabbit IgG or ALEXA FLUOR 488 donkey anti-mouse IgG (available from Invitrogen, US). The nuclei of the cultured cells were counter-stained and mounted with ProLong Gold antifade reagent with 4′-6-diamidine-2-phenylindole (DAPI) (available from Molecular Probes, US). The cultured cells were examined by a fluorescent microscope (available from Leica, Germany) and photographed. […]

[6] = system: P-selectin on human LECs; assay: Immunohistochemical expression of P-selectin on cultured human LECs; details: 48 hrs. treatment with 100 ng/mL IL-6, 100 ng/mL VEGF-A, or 500 ng/mL VEGF-C
Procedure: as §1, §2
Before primary staining, the cultured cells were permeabilized with 0.1% TRITON-X. After washing three times in PBS, the cells were incubated for 1 hr. at room temperature with 1:100 diluted ALEXA FLUOR 488 donkey anti-mouse IgG (available from Invitrogen, US). […]

[7] = system: VCAM-1 on human LECs; assay: Immunohistochemical expression of VCAM-1 on cultured human LECs; details: for staining with VCAM-1 on human LECs: 48 hrs. treatment with 100 ng/mL IL-6, 100 ng/mL VEGF-A, or 500 ng/mL VEGF-C; for expression of VCAM-1 on human LECs: 18 hrs.-stimulation with 10 ng/mL chemokine
Procedure: as §1, §2, §3, §4

[8] = system: human LECs; assay: Proliferative ability of human LECs with lymphangiogenic factors
[9] = 48 hrs. treatment with 100 ng/mL IL-6, 100 ng/mL VEGF-A, or 500 ng/mL VEGF-C
[10] = 18 hrs.-stimulation with 10 ng/mL chemokine

Molecule: C#CCn1c(=O)c2c(ncn2C)n(C)c1=O [DMPX, 3,7-dimethyl-1-propargyl xanthine]
- effect on MDA-MB-231 supernatant-mediated expression of ICAM-1 on human LECs [1]: no significant effect

Molecule: CCCn1c(=O)c2[nH]c(C3CCCC3)nc2n(CCC)c1=O [DPCPX, 8-cyclopentyl-1,3-dipropylxanthine]
- effect on MDA-MB-231 supernatant-mediated expression of ICAM-1 on human LECs [1]: no significant effect

Molecule: Cc1ccc(C(=O)Nc2ccc(S(=O)(=O)O)c3cc(S(=O)(=O)O)cc(S(=O)(=O)O)c23)cc1NC(=O)c1cccc(NC(=O)Nc2cccc(C(=O)Nc3cc(C(=O)Nc4ccc(S(=O)(=O)O)c5cc(S(=O)(=O)O)cc(S(=O)(=O)O)c45)ccc3C)c2)c1 [suramin]
- effect on MDA-MB-231 supernatant-mediated expression of ICAM-1 on human LECs [1]: significant reduction
- effect on MDA-MB-231 supernatant-mediated increase of attachment of carcinoma cells to human LECs ([2]; 48 hrs. simultaneous treatment with 10^−6M suramin): significant reduction
- effect on ATP-mediated increased attachment of carcinoma cells to LECs ([2]; simultaneous treatment with 10^−6M suramin, 10^−7M ATP 48 hrs.): significantly reduced
- effect on ATP-mediated expression of ICAM-1 on LECs ([3]; simultaneous treatment with 10^−7M or 10^−6M suramin, 10^−7M ATP, p<0.01, n=5): significant reduction

Molecule: IL-1β: interleukin-1β, stimulating factor
- expression of F-actin (phalloidin-FITC fluorescence) [4]: increase of expression of F-actin

Molecule: IL-6: cytokine
- expression of E-selectin on human LECs [5, 9]: No or little expression
- staining by P-selectin antiserum on human LECs [6]: strongly stained
- staining with VCAM-1 on human LECs [7]: Slight staining
- staining with ICAM-1 on human LECs [3]: Slight staining

Molecule: VEGF
- proliferative ability of the LECs [8]: Sthenia of proliferative ability

Molecule: basic-FGF: basic fibroblast growth factor, lymphangiogenic factor
- proliferative ability of the LECs [8]: Sthenia of proliferative ability

B1: VEGF-C: growth factor; lymphangiogenic factor (protein, UniProt P49767 112-227, looked up)
Vascular endothelial growth …: AHYNTEILKSIDNEWRKTQCMPREVCIDVGKEFGVATNTFFKPPCVSVYRCGGCCNSEGLQCMNTSTSYLSKTLFEITVPLSQGPKPVTISFANHTSCRCMSKLDVYRQVHSIIRR
- expression of E-selectin on human LECs [5, 9]: No or little expression
- staining by P-selectin antiserum on human LECs [6]: strongly stained
- staining with VCAM-1 on human LECs [7]: Slight staining
- proliferative ability of the LECs [8]: Sthenia of proliferative ability
- staining with ICAM-1 on human LECs [3]: Slight staining

B2: CCL12: chemokine (protein, UniProt Q62401 23-104, looked up)
C-C motif chemokine 12: GPDAVSTPVTCCYNVVKQKIHVRKLKSYRRITSSQCPREAVIFRTILDKEICADPKEKWVKNSINHLDKTSQTFILEPSCLG
- expression of E-selectin on human LECs [5, 10]: Little or no expression
- expression of VCAM-1 on human LECs [7]: Little or no expression
- expression of ICAM-1 on human LECs [3]: slight staining

B3: CCL21: chemokine (protein, UniProt O00585 24-134, looked up)
C-C motif chemokine 21: SDGGAQDCCLKYSQRKIPAKVVRSYRKQEPSLGCSIPAILFLPRKRSQAELCADPKELWVQQLMQHLDKTPSPQKPAQGCRKDRGASKTGKKGKGSKGCKRTERSQTPKGP
- expression of E-selectin on human LECs [5, 10]: Little or no expression
- expression of VCAM-1 on human LECs [7]: Little or no expression
- expression of ICAM-1 on human LECs [3]: slight staining

B4: CCL1: chemokine (protein, UniProt P22362 24-96, looked up)
C-C motif chemokine 1: KSMQVPFSRCCFSFAEQEIPLRAILCYRNTSSICSNEGLIFKLKRGKEACALDTVGWVQRHRKMLRHCPSKRK
- expression of E-selectin on human LECs [5, 10]: Little or no expression
- expression of VCAM-1 on human LECs [7]: Little or no expression
- expression of ICAM-1 on human LECs [3]: slight staining
